{
  "source": "paper PMC7509555",
  "about": "“An In Vitro Study for Evaluating Permeability and Metabolism of Kurarinone” (Evidence-based Complementary and Alternative Medicine : eCAM, 2020)",
  "assay_type_in_all_cases": "in vitro ADME, human",
  "key": {"HLMs": {"tested_on": "HLMs", "assay": "Chemical inhibition study of kurarinone metabolism (P1 formation) in HLMs", "conditions": "kurarinone 20 μM in HLMs", "description": "HLMs were utilized as metabolic enzymes."}, "[1]": {"substrate": "C=C(C)C(CC=C(C)C)Cc1c(O)cc(OC)c2c1O[C@H](c1ccc(O)cc1O)CC2=O", "assay": "Enzyme kinetics of P1 formation from kurarinone in recombinant CYP2D6", "conditions": "other: recombinant CYP2D6; kurarinone 1–200 μM; 37.0 °C", "protocol": "(§1) Samples were prepared in a total volume of 200 μL, containing 0.3 mg/mL protein in human liver microsomes or 15 nM protein in recombinant human supersomes, probe substrates or 50 μM kurarinone, 10 mM MgCl2, 10 mM glucose-6-phosphate, and 1 unit/mL of glucose-6-phosphate dehydrogenase. The reactions were activated by adding NADPH following preincubation at 37°C for 5 min. The reactions were maintained at 37°C for 1 h and terminated by adding 200 μL ice-cold acetonitrile. The supernatant (10 μL) collected from the samples that were centrifuged (20,000 g, 20 min, 4°C) was injected into the HPLC system for analysis. Control incubations devoid of NADPH or kurarinone were performed parallelly to ensure that the produced metabolites were NADPH- or kurarinone-dependent.\n(§2) Various concentrations of kurarinone (1–200 μM) were incubated with RLMs, MLMs, PLMs, RAMs, CYP1A2, and CYP2D6 to estimate kinetic parameters. The rest of the other conditions remained the same as described in Section 2.3. […] The apparent Km and Vmax values were calculated from nonlinear regression analysis of experimental data according to the Michaelis–Menten equation, and the results were represented graphically by Eadie–Hofstee plots. All incubations were carried out as triplicate independent experiments, and kinetic constants were recorded as mean ± SD."}, "[2]": {"substrate": "C=C(C)C(CC=C(C)C)Cc1c(O)cc(OC)c2c1O[C@H](c1ccc(O)cc1O)CC2=O", "assay": "Enzyme kinetics of P1 formation from kurarinone in recombinant CYP1A2", "conditions": "other: recombinant CYP1A2; kurarinone 1–200 μM; 37.0 °C", "protocol": "as §1, §2"}},
  "data": [
    {"molecule": "Cc1nc2c([nH]1)c(=O)n(C)c(=O)n2Cc1ccco1", "note": "[furafylline]", "values": [
      {"measurement": "effect of selective CYP inhibitor on formation of P1 from kurarinone", "setting": "HLMs", "value": "remarkably inhibited"}
    ]},
    {"molecule": "CYP2D6 (Homo sapiens) (protein, purchased BD Gentest Corp. (Woburn, MA, USA)) MGLEALVPLAVIVAIFLLLVDLMHRRQRWAARYPPGPLPLPGLGNLLHVDFQNTPYCFDQLRRRFGDVFSLQLAWTPVVVLNGLAAVREALVTHGEDTADRPPVPITQILGFGPRSQGVFLARYGPAWREQRRFSVSTLRNLGLGKKSLEQWVTEEAACLCAAFANHSGRPFRPNGLLDKAVSNVIASLTCGRRFEYDDPRFLRLLDLAQEGLKEESGFLREVLNAVPVLLHIPALAGKVLRFQKAFLTQLDELLTEHRMTWDPAQPPRDLTEAFLAEMEKAKGNPESSFNDENLRIVVADLFSAGMVTTSTTLAWGLLLMILHPDVQRRVQQEIDDVIGQVRRPEMGDQAHMPYTTAVIHEVQRFGDIVPLGVTHMTSRDIEVQGFRIPKGTTLITNLSSVLKDEAVWEKPFRFHPEHFLDAQGHFVKPEAFLPFSAGRRACLGEPLARMELFLFFTSLLQHFSFSVPTGQPRPSHHGVFAFLVSPSPYELCAVPR", "values": [
      {"measurement": "Km", "setting": "[1]", "value": "13.76 ± 3.09", "unit": "µM"},
      {"measurement": "kcat", "setting": "[1]", "value": "2.78 ± 0.36", "unit": "μmol·min^−1·nmol^−1 CYP"}
    ]},
    {"molecule": "CYP1A2 (Homo sapiens) (protein, purchased BD Gentest Corp. (Woburn, MA, USA)) MALSQSVPFSATELLLASAIFCLVFWVLKGLRPRVPKGLKSPPEPWGWPLLGHVLTLGKNPHLALSRMSQRYGDVLQIRIGSTPVLVLSRLDTIRQALVRQGDDFKGRPDLYTSTLITDGQSLTFSTDSGPVWAARRRLAQNALNTFSIASDPASSSSCYLEEHVSKEAKALISRLQELMAGPGHFDPYNQVVVSVANVIGAMCFGQHFPESSDEMLSLVKNTHEFVETASSGNPLDFFPILRYLPNPALQRFKAFNQRFLWFLQKTVQEHYQDFDKNSVRDITGALFKHSKKGPRASGNLIPQEKIVNLVNDIFGAGFDTVTTAISWSLMYLVTKPEIQRKIQKELDTVIGRERRPRLSDRPQLPYLEAFILETFRHSSFLPFTIPHSTTRDTTLNGFYIPKKCCVFVNQWQVNHDPELWEDPSEFRPERFLTADGTAINKPLSEKMMLFGMGKRRCIGEVLAKWEIFLFLAILLQQLEFSVPPGVKVDLTPIYGLTMKHARCEHVQARLRFSIN", "values": [
      {"measurement": "Km", "setting": "[2]", "value": "9.45 ± 2.11", "unit": "µM"},
      {"measurement": "kcat", "setting": "[2]", "value": "2.45 ± 0.25", "unit": "μmol·min^−1·nmol^−1 CYP"}
    ]}
  ]
}
